Here are results for 2 molecules from patent publication US20190338269.

The target in one data set is plasma factor X (UniProt P00742).
plasma factor X, sequence (P00742 whole entry, looked up): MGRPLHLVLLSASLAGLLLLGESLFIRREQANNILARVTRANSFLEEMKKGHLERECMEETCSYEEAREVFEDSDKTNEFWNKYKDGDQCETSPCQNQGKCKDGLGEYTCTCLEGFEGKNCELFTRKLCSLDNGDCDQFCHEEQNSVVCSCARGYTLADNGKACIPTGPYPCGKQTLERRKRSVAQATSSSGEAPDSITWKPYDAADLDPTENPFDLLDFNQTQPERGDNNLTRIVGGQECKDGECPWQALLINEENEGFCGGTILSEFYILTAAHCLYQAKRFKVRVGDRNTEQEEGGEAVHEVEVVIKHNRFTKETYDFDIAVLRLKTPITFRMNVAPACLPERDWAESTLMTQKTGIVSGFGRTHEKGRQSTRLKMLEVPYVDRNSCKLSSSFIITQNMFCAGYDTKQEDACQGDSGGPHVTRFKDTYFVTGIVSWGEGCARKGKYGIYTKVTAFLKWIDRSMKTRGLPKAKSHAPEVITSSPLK

plasma factor X, P00742, sequence (P00742 whole entry, looked up): as above

As for thrombin, the “appearance of FXa activity after incubation with thrombin (100 nM FX / 10 nM IIa, up to 8 h)” value with plasma factor X is “did not result in the appearance of FXa activity”.

B1: factor VIIa/tissue factor (TF) complex (protein)
chain 1: ANAFLEELRPGSLERECKEEQCSFEEAREIFKDAERTKLFWISYSDGDQCASSPCQNGGSCKDQLQSYICFCLPAFEGRNCETHKDDQLICVNENGGCEQYCSDHTGTKRSCRCHEGYSLLADGVSCTPTVEYPCGKIPILEKRNASKPQGRIVGGKVCPKGECPWQVLLLVNGAQLCGGTLINTIWVVSAAHCFDKIKNWRNLIAVLGEHDLSEHDGDEQSRRVAQVIIPSTYVPGTTNHDIALLRLHQPVVLTDHVVPLCLPERTFSERTLAFVRFSLVSGWGQLLDRGATALELMVLNVPRLMTQDCLQQSRKVGDSPNITEYMFCAGYSDGSKDSCKGDSGGPHATHYRGTWYLTGIVSWGQGCATVGHFGVYTRVSQYIEWLQKLMRSEPRPGVLLRAPFP
chain 2: SGTTNTVAAYNLTWKSTNFKTILEWEPKPVNQVYTVQISTKSGDWKSKCFYTTDTECDLTDEIVKDVKQTYLARVFSYPAGNVESTGSAGEPLYENSPEFTPYLETNLGQPTIQSFEQVGTKVNVTVEDERTLVRRNNTFLSLRDVFGKDLIYTLYYWKSSSSGKKTAKTNTNEFLIDVDKGENYCFSVQAVIPSRTVNRKSTDSPVECMGQEKGEFREIFYIIGAVVFVVIILVIILAISLHKCRKAGVGQSWKENSPLNVS
Turning to B1, in the data set with plasma factor X, P00742, the “FXa generated after incubation with FVIIa/TF (rate of hydrolysis of PNAPEP substrate)” value is “the already activated plasma FX and the plasma FX treated with the FVIIa/FT both gave a positive signal of the same order of magnitude”.
